Reference: the supplement of paper PMC6757056
± gives the standard deviation of the averaged measurements.

B1: library; a variant is named by its letters at N, in order (parent)
chain: GCUGUCACCGGUGUAUUACCCUAGUGGUCGACCGGUCUGAUGAGUCUNNNNNNAGACGAAACAGC

Key:
hypoxanthine [1] = variants of: B1; test: normalized RNA/DNA level with ligand (relative to sTRSVctl = 100) (log10 (% of sTRSVctl)); ligand: hypoxanthine (xanthine aptamer); higher = less ribozyme self-cleavage, higher mRNA level; conditions: ligand concentration (+) RNA-Seq: 5 mM, HEK293T, reporter: mCherry (pCS4076), ligand present: yes
Method in brief: (§1)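 HEK293T cells were transfected with library plasmids carrying ribozyme switches linked to an mCherry reporter, or an eGFP reporter in some ligand experiments, at 4 µg per well of a 6-well plate, with any ligand added 1 h beforehand. After 72 h, total RNA was extracted with EDTA, reverse-transcribed, amplified, barcoded and sequenced. RNA level was defined as RNA reads over DNA reads, normalized to a spiked-in non-cleaving sequence or to the top-ranked sequences. That value was multiplied by 100 and converted to log10, the top set was 25 sequences, and only sequences with ≥100 DNA reads were retained.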

hypoxanthine [2] = variants of: B1; test: normalized RNA/DNA level without ligand (relative to sTRSVctl = 100) (log10 (% of sTRSVctl)); ligand: hypoxanthine (xanthine aptamer); higher = less ribozyme self-cleavage, higher mRNA level; conditions: HEK293T, reporter: mCherry (pCS4076), ligand present: no
Method in brief: as §1

Row | Variant | normalized RNA/DNA level with ligand (log10) (hypoxanthine [1]) | normalized RNA/DNA level without ligand (log10) (hypoxanthine [2])
1 | ACUAUG | 1.89 ± 0.021 | 1.48 ± 0.015
2 | ACUAUU | 1.928 ± 0.012 | 1.82 ± 0.03
3 | ACUAUC | 1.98 ± 0.03 | 1.95 ± 0.046
4 | CCUACC | 1.937 ± 0.0065 | 1.86 ± 0.049
5 | CCUACG | 1.94 ± 0.073 | 1.9 ± 0.041
6 | CCUACU | 1.98 ± 0.13 | 1.96 ± 0.021
7 | UCUUGC | 1.98 ± 0.1 | 1.9 ± 0.022
8 | UCUUGU | 1.91 ± 0.1 | 1.667 ± 0.0039
9 | UCUUGG | 1.92 ± 0.035 | 1.751 ± 0.008
10 | UCUCGA | 1.93 ± 0.057 | 1.832 ± 0.013
11 | UCUCGU | 1.96 ± 0.053 | 1.83 ± 0.045
12 | UCUCGG | 1.92 ± 0.032 | 1.7302 ± 0.00058
13 | UCUCGC | 1.99 ± 0.022 | 1.757 ± 0.0053
14 | ACUGCU | 1.91 ± 0.033 | 1.86 ± 0.037
15 | ACUGCC | 1.9853 ± 0.0019 | 1.89 ± 0.065
16 | CGACAA | 1.89 ± 0.061 | 1.64 ± 0.012
17 | UCGUUU | 1.96 ± 0.042 | 1.8 ± 0.01
18 | UCGUUA | 1.961 ± 0.0027 | 1.736 ± 0.0095
19 | UCGUUG | 1.98 ± 0.095 | 1.785 ± 0.01
20 | UCGUUC | 2 ± 0.031 | 1.95 ± 0.086
21 | CCUGGG | 1.94 ± 0.027 | 1.508 ± 0.014
22 | CCUGGA | 1.996 ± 0.0047 | 1.88 ± 0.02
23 | CCUGGC | 2.01 ± 0.037 | 1.924 ± 0.00087

Row | Variant | normalized RNA/DNA level with ligand (log10) (hypoxanthine [1]) | normalized RNA/DNA level without ligand (log10) (hypoxanthine [2])
24 | CCUGGU | 1.945 ± 0.014 | 1.88 ± 0.0076
25 | GGAAUC | 1.9 ± 0.035 | 1.81 ± 0.057
26 | ACGUGC | 1.81 ± 0.023 | 1.515 ± 0.0062
27 | ACUCAA | 1.92 ± 0.073 | 1.748 ± 0.0042
28 | ACUCAC | 1.994 ± 0.0082 | 1.97 ± 0.013
29 | ACUCAG | 1.89 ± 0.04 | 1.529 ± 0.0011
30 | GCUUAU | 1.98 ± 0.053 | 1.81 ± 0.019
31 | GCUUAC | 1.918 ± 0.0079 | 1.7 ± 0.11
32 | UCGUCG | 1.99 ± 0.042 | 1.85 ± 0.049
33 | UCGUCU | 1.93 ± 0.049 | 1.87 ± 0.062
34 | ACUUGC | 1.9727 ± 0.00052 | 1.822 ± 0.0021
35 | ACUUGG | 1.88 ± 0.029 | 1.38 ± 0.068
36 | ACUUGA | 1.935 ± 0.017 | 1.72 ± 0.027
37 | ACUUGU | 1.91 ± 0.086 | 1.77 ± 0.11
38 | GCUGUC | 1.913 ± 0.0099 | 1.84 ± 0.013
39 | GCUGUA | 1.9622 ± 0.0015 | 1.901 ± 0.014
40 | GCUGUU | 1.99 ± 0.05 | 1.98 ± 0.058
41 | ACUCUC | 2.06 ± 0.025 | 2.014 ± 0.005
42 | UGACAA | 1.918 ± 0.012 | 1.74 ± 0.078
43 | UCUCCG | 1.85 ± 0.036 | 1.43 ± 0.1
44 | UCUCCC | 1.98 ± 0.14 | 1.77 ± 0.022
45 | UCUCCA | 1.93 ± 0.069 | 1.77 ± 0.019
46 | UCUCCU | 1.99 ± 0.059 | 1.87 ± 0.028

Row | Variant | normalized RNA/DNA level with ligand (log10) (hypoxanthine [1]) | normalized RNA/DNA level without ligand (log10) (hypoxanthine [2])
47 | ACUCGU | 1.95 ± 0.033 | 1.89 ± 0.025
48 | ACUCGC | 1.99 ± 0.041 | 1.93 ± 0.032
49 | CCUAAU | 1.94 ± 0.12 | 1.86 ± 0.1
50 | CCUAAC | 1.93 ± 0.042 | 1.825 ± 0.0078
51 | CCUAAG | 1.91 ± 0.05 | 1.66 ± 0.013
52 | ACGUUC | 1.94 ± 0.039 | 1.79 ± 0.024
53 | ACGUUU | 1.84 ± 0.022 | 1.53 ± 0.035
54 | ACGUUA | 1.867 ± 0.015 | 1.62 ± 0.095
55 | CCUGAU | 1.909 ± 0.004 | 1.821 ± 0.013
56 | CCUGAA | 1.98 ± 0.078 | 1.78 ± 0.075
57 | CCUGAC | 1.92 ± 0.1 | 1.83 ± 0.035
58 | UCUGCG | 2.01 ± 0.08 | 1.73 ± 0.015
59 | UCUGCC | 2.04 ± 0.021 | 1.89 ± 0.022
60 | UCUGCA | 1.92 ± 0.024 | 1.88 ± 0.059
61 | UCUGCU | 1.968 ± 0.0085 | 1.924 ± 0.0035
62 | UCUGAC | 1.99 ± 0.031 | 1.8115 ± 0.00067
63 | UCUGAG | 1.927 ± 0.0088 | 1.58 ± 0.035
64 | UCUGAU | 1.94 ± 0.066 | 1.77 ± 0.096
65 | GCUGAC | 1.9 ± 0.034 | 1.63 ± 0.034
66 | GCUGAG | 1.85 ± 0.083 | 1.347 ± 0.012
67 | GGAACA | 1.942 ± 0.0069 | 1.764 ± 0.0065
68 | GGAACU | 1.93 ± 0.031 | 1.9403 ± 0.00023
69 | GGAACC | 1.957 ± 0.0033 | 1.86 ± 0.021

Row | Variant | normalized RNA/DNA level with ligand (log10) (hypoxanthine [1]) | normalized RNA/DNA level without ligand (log10) (hypoxanthine [2])
70 | ACUUAC | 1.93 ± 0.046 | 1.84 ± 0.052
71 | ACUUAU | 1.9 ± 0.029 | 1.729 ± 0.014
72 | CCUUGU | 1.93 ± 0.15 | 1.88 ± 0.041
73 | CCUUGA | 1.97 ± 0.09 | 1.86 ± 0.026
74 | UGAAGC | 1.925 ± 0.0097 | 1.807 ± 0.01
75 | UGAAGG | 1.83 ± 0.055 | 1.48 ± 0.062
76 | UCUCUC | 2.025 ± 0.016 | 1.94 ± 0.09
77 | UCUCUU | 1.94 ± 0.043 | 1.814 ± 0.017
78 | UCUGGU | 1.96 ± 0.031 | 1.69 ± 0.084
79 | UCUUUG | 1.95 ± 0.033 | 1.73 ± 0.043
80 | UCUUUC | 2.01 ± 0.052 | 1.99 ± 0.068
81 | UCUUUU | 1.95 ± 0.086 | 1.947 ± 0.0056
82 | CCGUUG | 1.88 ± 0.045 | 1.589 ± 0.0096
83 | CCGUUC | 1.96 ± 0.079 | 1.82 ± 0.099
84 | CCGUUU | 1.95 ± 0.028 | 1.86 ± 0.069
85 | CCGUUA | 1.94 ± 0.021 | 1.75 ± 0.094
86 | ACGUCG | 1.88 ± 0.041 | 1.41 ± 0.11
87 | ACGUCU | 1.95 ± 0.042 | 1.65 ± 0.066
88 | GCUUCU | 1.996 ± 0.0049 | 1.94 ± 0.058
89 | GCUUCA | 1.966 ± 0.0076 | 1.898 ± 0.011
90 | GCUUCC | 1.963 ± 0.0026 | 1.833 ± 0.012
91 | CCUCUU | 2.011 ± 0.018 | 1.9823 ± 0.00045
92 | CCUCUG | 1.96 ± 0.038 | 1.98 ± 0.035

Row | Variant | normalized RNA/DNA level with ligand (log10) (hypoxanthine [1]) | normalized RNA/DNA level without ligand (log10) (hypoxanthine [2])
93 | CCUCUA | 1.98 ± 0.05 | 1.926 ± 0.015
94 | ACUUCA | 1.95 ± 0.025 | 1.922 ± 0.013
95 | ACUUCU | 1.91 ± 0.12 | 1.889 ± 0.0063
96 | ACUUCC | 1.928 ± 0.015 | 1.923 ± 0.0089
97 | UCUCAA | 1.92 ± 0.055 | 1.679 ± 0.0047
98 | UCUCAU | 1.975 ± 0.012 | 1.887 ± 0.01
99 | UCUCAC | 2 ± 0.055 | 1.77 ± 0.047
100 | UCUUAA | 1.87 ± 0.047 | 1.83 ± 0.041
101 | UCUUAG | 1.93 ± 0.042 | 1.66 ± 0.017
102 | UCUUAC | 1.94 ± 0.058 | 1.83 ± 0.044
103 | UCUUAU | 1.9468 ± 0.0014 | 1.84 ± 0.092
104 | CGAAAG | 1.94 ± 0.04 | 1.839 ± 0.0055
105 | ACUCCU | 1.965 ± 0.011 | 1.905 ± 0.018
106 | ACUCCA | 2.014 ± 0.018 | 1.91 ± 0.023
107 | CCUGCU | 2.02 ± 0.049 | 1.98 ± 0.08
108 | CCUGCA | 2.011 ± 0.0089 | 1.9 ± 0.041
109 | CCUGCC | 2.04 ± 0.026 | 2.01 ± 0.023
110 | CCGUCU | 1.97 ± 0.036 | 1.83 ± 0.063
111 | CCGUCG | 1.89 ± 0.061 | 1.689 ± 0.011
112 | CCUUAU | 1.95 ± 0.014 | 1.93 ± 0.069
113 | CCUUAA | 1.96 ± 0.034 | 1.85 ± 0.038
114 | CCUUAG | 1.98 ± 0.025 | 1.72 ± 0.037
115 | CCUUAC | 1.94 ± 0.025 | 1.829 ± 0.0071
